Data as given in paper PMC3288673.

Target: T1, Rev-Erbα (UniProt P20393 1-614)
T1 sequence: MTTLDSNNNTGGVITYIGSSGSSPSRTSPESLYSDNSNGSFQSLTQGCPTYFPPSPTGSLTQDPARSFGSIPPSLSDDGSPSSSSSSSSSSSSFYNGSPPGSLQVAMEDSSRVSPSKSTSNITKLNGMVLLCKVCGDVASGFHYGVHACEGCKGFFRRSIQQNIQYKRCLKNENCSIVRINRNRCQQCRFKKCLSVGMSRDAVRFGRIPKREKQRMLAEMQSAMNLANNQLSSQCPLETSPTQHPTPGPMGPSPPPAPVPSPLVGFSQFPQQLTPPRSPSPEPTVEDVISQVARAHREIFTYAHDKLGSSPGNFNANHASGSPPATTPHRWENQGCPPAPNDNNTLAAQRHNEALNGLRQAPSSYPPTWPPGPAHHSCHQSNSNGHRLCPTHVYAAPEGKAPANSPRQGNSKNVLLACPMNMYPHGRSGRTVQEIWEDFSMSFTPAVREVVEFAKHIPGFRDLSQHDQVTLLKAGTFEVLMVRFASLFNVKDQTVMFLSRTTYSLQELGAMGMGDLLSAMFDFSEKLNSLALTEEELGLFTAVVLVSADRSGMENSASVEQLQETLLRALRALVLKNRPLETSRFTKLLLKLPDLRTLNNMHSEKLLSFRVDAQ
Assay: EMSA

B1: RevDR2 (dsDNA)
DNA 1: AGCTCCAACTAGGTCACTAGGTCAAAGGGA
DNA 2: TCGATCCCTTTGACCTAGTGACCTAGTTGG
Question: Does B1 bind?
Answer: Result: binds
